Test results as given in the supplement of paper PMC12783771.
± gives the standard deviation of the averaged measurements.

B1: library; numbered along this chain (parent)
chain: MNIQIGELAKRTACPVVTIRFYEQEGLLPPPGRSRGNFRLYGEEHVERLQFIRHCRSLDMPLSDVRTLLSYRKRPDQDCGEVNMLLDEHIRQVESRIGALLELKHHLVELREACSGARPAQSCGILQGLSDCVCDTRGTTAHPSD

Columns and labels:
[1] = variants of: B1; assay: sfGFP reporter fluorescence (15 h) (µM FITC); higher = higher leak; details: library round: Round 0; ligand: none
Procedure, shortened: (§1)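 PCR-made linear PbrR templates (Echo-normalized to 5 nM) were expressed in BL21 Star (DE3) extract (PANOx-SP) with pPbrR-sfGFP reporter plasmid and 30 μg/mL GamS. Reactions were 1 μL, Echo-assembled, with 1 µM lead chloride, 30 µM zinc acetate or no metal, incubated 15 hr at 30 °C. Endpoint sfGFP fluorescence (485/528 nm, Synergy Neo2) was converted to µM FITC via standard curves in 50 mM sodium borate pH 8.5. Up to three biological replicates.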

[2] = variants of: B1; assay: sfGFP reporter fluorescence (15 h) (µM FITC); higher = stronger transcriptional activation; details: library round: Round 0
Procedure, shortened: as §1

| Variant | sfGFP reporter fluorescence [1] | sfGFP reporter fluorescence ([2]; ligand: 1 µM Pb) | sfGFP reporter fluorescence ([2]; ligand: 30 µM Zn) |
| --- | --- | --- | --- |
| L68Q | 0.0603 ± 0.00078 | 0.05736 ± 0.00026 | 0.0629 ± 0.0018 |
| L68C | 0.0678 ± 0.0031 | 0.0874 ± 0.0044 | 0.504 ± 0.017 |
| L68I | 0.0599 ± 0.0013 | 0.059 ± 0.0021 | 0.214 ± 0.047 |
| L68T | 0.0612 ± 0.0015 | 0.0605 ± 0.001 | 0.0717 ± 0.0013 |
| G80A | 0.0577 ± 0.0029 | 0.0649 ± 0.0073 | 0.526 ± 0.039 |
| Q77A | 0.0698 ± 0.0013 | 0.128 ± 0.045 | 1.48 ± 0.31 |
| E94A | 0.0738 ± 0.0044 | 0.0867 ± 0.0065 | 0.333 ± 0.015 |
| E94K | 0.0612 ± 0.0026 | 0.0793 ± 0.0034 | 0.824 ± 0.043 |
| E94N | 0.0607 ± 0.0013 | 0.0755 ± 0.0047 | 0.659 ± 0.026 |
| E94F | 0.0563 ± 0.0044 | 0.0579 ± 0.001 | 0.177 ± 0.006 |
| E94G | 0.0553 ± 0.0036 | 0.0656 ± 0.0031 | 0.52721 ± 0.00026 |
| E94D | 0.0579 ± 0.0052 | 0.0623 | 0.32 ± 0.013 |
| E94C | 0.0645 ± 0.0021 | 0.115 ± 0.011 | 0.946 ± 0.18 |
| E94W | 0.0577 ± 0.0039 | 0.05516 ± 0.00026 | 0.143 ± 0.0054 |
| E94Q | 0.0632 ± 0.0013 | 0.0856 ± 0.008 | 1.02 ± 0.07 |
| E94I | 0.0555 ± 0.0034 | 0.08008 ± 0.00026 | 0.714 ± 0.013 |
| E94P | 0.0535 ± 0.0026 | 0.0533 ± 0.0023 | 0.05571 ± 0.00052 |
| E94M | 0.0581 ± 0.0018 | 0.0726 ± 0.0047 | 0.598 ± 0.031 |
| E94Y | 0.0577 ± 0.0034 | 0.0553 ± 0.0047 | 0.153 ± 0.0047 |
| E94V | 0.059 ± 0.0042 | 0.0847 ± 0.0052 | 0.739 ± 0.052 |
| E94R | 0.0597 ± 0.0052 | 0.0803 ± 0.0031 | 0.722 ± 0.032 |
| E94S | 0.0674 ± 0.0036 | 0.132 ± 0.0031 | 1.51 ± 0.013 |
| E94H | 0.0592 ± 0.0029 | 0.0632 ± 0.0023 | 0.344 ± 0.021 |

| Variant | sfGFP reporter fluorescence [1] | sfGFP reporter fluorescence ([2]; ligand: 1 µM Pb) | sfGFP reporter fluorescence ([2]; ligand: 30 µM Zn) |
| --- | --- | --- | --- |
| E94L | 0.0579 ± 0.0021 | 0.0698 ± 0.0075 | 0.583 ± 0.006 |
| E94T | 0.0673 ± 0.0029 | 0.108 ± 0.03 | 1.27 ± 0.29 |
| D78A | 0.0713 ± 0.0065 | 0.0689 ± 0.0021 | 0.1 ± 0.0026 |
| N83V | 0.0577 ± 0.0034 | 0.07623 ± 0.00052 | 0.0588 ± 0.0013 |
| N83T | 0.0607 ± 0.00078 | 0.0759 ± 0.0015 | 0.226 ± 0.047 |
| N83C | 0.0601 ± 0.0021 | 0.114 ± 0.016 | 0.0649 ± 0.0015 |
| N83R | 0.0625 ± 0.00078 | 0.0775 ± 0.0065 | 0.0883 ± 0.0021 |
| N83A | 0.061 ± 0.0013 | 0.0867 ± 0.0065 | 0.1411 ± 0.001 |
| N83W | 0.059 ± 0.0031 | 0.0748 ± 0.0042 | 0.0619 |
| N83L | 0.0585 ± 0.0018 | 0.07 ± 0.0088 | 0.0575 ± 0.0031 |
| N83Q | 0.06487 ± 0.00052 | 0.0693 | 1.55 ± 0.4 |
| N83G | 0.0559 ± 0.00078 | 0.0748 ± 0.001 | 0.692 ± 0.13 |
| N83H | 2.73 ± 0.37 | 2.63 ± 0.52 | 3.526 ± 0.0086 |
| N83Y | 0.0594 ± 0.0015 | 0.0762 ± 0.001 | 0.0645 ± 0.0015 |
| N83E | 0.0612 ± 0.001 | 0.0612 ± 0.0015 | 0.141 ± 0.0023 |
| N83S | 0.0605 ± 0.0026 | 0.0775 ± 0.00078 | 0.333 ± 0.016 |
| N83K | 0.0603 ± 0.0034 | 0.0663 ± 0.0015 | 0.07532 ± 0.00026 |
| N83M | 0.06102 ± 0.00026 | 0.0768 ± 0.0023 | 0.06194 ± 0.00052 |
| N83I | 0.0561 ± 0.0015 | 0.0718 ± 0.001 | 0.055 ± 0.001 |
| N83F | 0.0588 ± 0.00078 | 0.07275 ± 0.00026 | 0.05882 ± 0.00026 |
| N83P | 0.05772 ± 0.00026 | 0.0579 ± 0.001 | 0.0552 ± 0.0023 |
| N83D | 0.0614 ± 0.0013 | 0.0607 ± 0.0013 | 1.003 ± 0.0065 |
